Here are results for 17 sequences from a protein production outcome set (Wang et al. 2014).

This series can be described thus: label from the status in PepcDB records.

As for “MSTDKSKTRELILNGNLYKVLFLISFPIVITNIIQAFYDLTDMFYVGKLGAMPLSALSLAGPVNFFIIAIAMGMATGSISLMSKCIGEGNFSRFSRYAGQLIVLNFVLSLFVTICAFFFIDHLLDLLGVKGELKELSRVYFYVTIFAIPIMFLSISITYILNAQGETILSMTIVLFANIVNFILDPILIFSFNMGITGAAWATLFSKLLTVVFYLFLTYRLNYGLKIHLKDLVIDIRSIKEIVNLGLPSTFGQIMVSLSFFIFNYIVIEISPKFLAAYGLTNTIISFLFLPAMGIGTGIISIVGQNLGAKKVNRVEEVLKKGFFISLAILLIINSIVIFNKQFILRLFTNDLEVLNYANNYLLLTTIGTFGYGLQQVFFGGLIGSGRTKIAMIVIFIRLWLIRLPVVFIFQYFGIMENSLGYAFIISNYLAIIILIAFTCTRYWVKPILIKKYK”, the protein production entry is “failed”.

For the sequence “MSTFGKLFRVTTYGESHCKSVGCIVDGVPPGMSLTEADIQPQLTRRRPGQSKLSTPRDEKDRVEIQSGTEFGKTLGTPIAMMIKNEDQRPHDYSDMDKFPRPSHADFTYSEKYGIKASSGGGRASARETIGRVASGAIAEKFLAQNSNVEIVAFVTQIGEIKMNRDSFDPEFQHLLNTITREKVDSMGPIRCPDASVAGLMVKEIEKYRGNKDSIGGVVTCVVRNLPTGLGEPCFDKLEAMLAHAMLSIPASKGFEIGSGFQGVSVPGSKHNDPFYFEKETNRLRTKTNNSGGVQGGISNGENIYFSVPFKSVATISQEQKTATYDGEEGILAAKGRHDPAVTPRAIPIVEAMTALVLADALLIQKARDFSRSVVH”, the protein production result is “not failed”. Under “MSTGQAPEKSNFSQRCSLLSRYLKEKGSFGNINMGLARKSDLELAGKFDLKGQQNVIKKVETSETRPFKLIQKFSIGEASTSTEDKAIYIDLSEPAKVAPESGNSQLTIFFGGKVMVFNEFPEDKAKEIMEVAKEANHVAVDSKNSQSHMNLDKSNVVIPDLNEPTSSGNNEDQETGQQHQVVERIARRASLHRFFAKRKDRAVARAPYQVNQHGSHLPPKPEMVAPSIKSGQSSQHIATPPKPKAHNHMPMEVDKKEGQSSKNLELKL” stands “failed”. Under “MSTKTGNYISIAIFAFFGGIARAWLNSSFGFYGTFWGNIIGCFLLAFFTYLFMEFKDVRQWLTVGLGTGFVGAFTTFSTFNLDVLKNIQANVPITALIYFLSSIIFGFCFAYLGMNAGKQVGNLLRKED” stands “failed”. Under “MSTKTVHYPWFKKEDIDAFFALFQNNLANFVIIAVTMIGLGFPASLVFGKVIPGVAVAVIVGNLYYAYMANRLAQKESRSDVTALSYGISTPVMFVFLFGILAPALALTGDPELAWKIGLAAAFLSGFIELLVSFTGNWVRKHLPRPAMLGALAGVAVTFIAGEMLFQVFSIPVVGLVALAIILLGVVGKVTLPFNIPPSLCAVIIGTVLAFVLGYQSANTLQDSLANIGLYPILPSLGAFEGFGYLFGPLVGLLAILLPITIYNAIETMNNVDAMAAAGDSYDVRECQAVDGVGTMIGAVFGGLFPTTVYIATVGSKWMGAGRGYSILNALVFAITAVTGVIAALSELIPLAAVAPILVFVGMSMVVTAFDPNDRKYYPAVALAMLPYVANYVMTRFNNNAGEVVQGISEGIVPLGQGAMFTAIILGAIAVCIIDKQFIKAAVFSLIGAGLSFAGFMHAPELSFNAAPDYSLGYLCIAILFSYCAFRKTSKEAVASPSTLSSKRVAS” stands “failed”; under “MSTLQRRRVNRADSGDTSSIHSSANNTKGDKIANIAVDGDDDNGTNKKIAYDPEESKLRDNINIPTLTLMEEVLLMGLRDREGYLSFWNDSISYALRGCIIIELALRGKIRILDDSARKRFDLSERLIEVIDSSKTGEVLLDETLQLMKNDEPLSISNWIDLLSGETWNLLKINYQLKQVRERLAKGLVDKGVLRTEMKNFFLFDMATHPIADASCKEAIKRRVLSVLVSRNMELSYNEYFPETTSFKIIRTLALICGSYGANVLENVLTTLEYEKRDKAISRAEEIMAQFSQYPFDLEKETELGVSVNLNKEVKEEIENNPGHDLQLEVIAGVFEVFSRMDMLL”, “failed”. For “MSTPDGDEKEQCFHRAIAKTSIYLDREPGNPELTVWLAINKASLAGAQGGFGALSLAKEAKSLLEGVIATSPQTLDGSAYTSLGSLYYKVPGWPIGFGDDDKAEEMLKKALEINPKGIDPNYFYGDFLAEEGRDKEAKVYLTRAMQASPRPLEHHHHHH”, the protein production result is given as “failed”. Under “MSTPETYKRSALNPETSLLLFLVPNPSNLTPISYTLTIPPPHEKTMLDKHGLLTQPISDVLRKLTTPMVFGMVAILLFNLVDTFFISLLGTDALAAVSFTFPVTFAVNCITMGIGVGLSASIGHLLGEGHSKHAAELTTHGIILAISLILIACALGFFTIDPLFTLLGAEDKLLPLIDEYMSIWYLTIPLLVIPMSSNSAIRATGDTKTPAKIMMLAGLINGILDPLLIFGYGPFPELGIQGAAIASAISWLGALIASFYVLTHKVKLLALPNKNTLISDWKQILTIGSPAALSNALNPISGAILMMMLASQGTVAVASYGAAQRVESLMLLVIMALTSSLSPLVAQNLGAKQPERVKEAIFLAIKFSVAFQLFLYILIVPLSIPISHLFSQDDAVQHGLWMYLICVPFSYGFQGIVMVLVSSLNAMKKPLYSFSWSFMRLFVFTLPTAWIGSQIYGMEGLFIGIAMGNVMGGISAFWYARTRIRFEDAALEERGDTKS” stands “failed”; under “MSTRLCEPSLRDDGAQRGTPASHGKWCDTGAFKLDETPSPVVANVSSTSDASFQFNRTPSPGKHQNHAADRSMWSLDDFVIIRKLDEGRFGKVYLAREKQSKCAVVLKCISKDMIRFHSLAHQLQREVELQEYAGRYHKNVLRLFAYFWDDVRIVLVLEYADSGTLQDLLDCYREKEQRSSLPDDKVRTILLQLLSALAFLHERDIIHRDVKPDNILFHGEKLLLADFSWAVRVNNSDPRYCRRHTVCGTLDYLAPEQVLKRGCTTKADLWAVGVVAYRMLCGFLPFEMLDARDVCSCIASGAIRYPSQLSPTARHFLQGLLRVDEALRFSCQEALNHPFMRGDCNCRISNRYIESKHRARAEEPVLQHQGSFDTT”, “failed”. Under “MSTVKNGTLEQDKLNWFKYLLFGIQHVLVMIAVPITSVFLVAKALSLSDQLTVNLMSATFLVCGLGTLLQSIGVYKFGSRLPFVMIPGGAPIVMFLGIAQEKDLATASGAVILTSLFYFIILPVFKRFLRFFPNIVIGTLLILVSINLIKIYGGLVIGKPDTADFASTLNIGLAFATIAASLFFARVLKGTLSQLSILLGLIFGTILSAFLGQMHFETITQPTIFSLPTIMPFGVPKFDLVATIPLLIFSLISMVEATGQTIAISDLVGKKETAFERVPPTIRGDALISLLGGWLGTSMIITSGENIGIVRATQVRSRYVTIIAGIILLIISVFTPLAHLANAIPVAVVSGTAIIVFSIIGTIGIDILRRVDLHEKGNMYVLAGALTMGLLPILVNGVYTNFPHALQPILNNGLAMGALTAILLNIVFSTHSQADAHQESK” stands “failed”.

In the case of “MSTVPISGRSQIMLVQDSEILSSSALQYKQFLSKVKISKNATSTAQVRRVGQKVAAATMLYLKQNGLGDMASQMKWEFNVVEDKAVNAFCMPGGKIVVYTGLLKLVGSDAELATVISHEVSHAVARHSNERISQEYLRQMGGNILGAAVSNKSAALQTVIGQAYGIGSQVLITLPYNRKQEYEADKIGLVFMAMAGYNPNAAITFWQKMAAQGNGRVEFLSTHPSDANRIAAIRQYMPEAMKHYKSKLEHHHHHH”, the protein production entry is on record as “not failed”. Under “MSVDPACPQSLPCFEASDCKESSPMPVICGPEENYPSLQMSSAEMPHTETVSPLPSSMDLLIQDSPDSSTSPKGKQPTSAENSVAKKEDKVPVKKQKTRTVFSSTQLCVLNDRFQRQKYLSLQQMQELSNILNLSYKQVKTWFQNQRMKSKRWQKNNWPKNSNGVTQKASAPTYPSLYSSYHQGCLVNPTGNLPMWSNQTWNNSTWSNQTQNIQSWSNHSWNTQTWCTQSWNNQAWNSPFYNCGEESLQSCMHFQPNSPASDLEAALEAAGEGLNVIQQTTRYFSTPQTMDLFLNYSMNMQPEDV” stands “not failed”; under “MSVDQMAHYQRKLAYEMDSWDLYIALNEGQAITIVDGRSEAAFADEHIPGALNLPHKEICFNSTQMLDKSKLYVCYCDGIGCNASTKTALNLLTLGFDVRELIGGLDWWKRDGYATDGKKAQLGTKINCGC”, “failed”.

Consider “MSVDTTVKNRVYPAIPPTQLPEFETIFGHPKPLWMLFMAEFWERFAFYGIRWALTLYIVTQFFDGNAIGEGNANSTYGAYLALVYASAIFGGFIADRIIGYQRSIIIGAVIMACGLFLITVPSRTMFEIGLATIVIGNGLFKPNISSLVGQLYAEGDTRRDRGFTIFYMGINAGSLISPLITSWLAGQVFGTPMQQNYKVVFIASGIGMFLSLLWFWIGKRQLKGIGLSPKGGESIFRTFLIVFGALLAIPLAYLLLAKLNATTLAWILGLLFAVLATLLIVTALRNGKIQRDRVIAMLIIFVFNVMFWMFFEQAGSSFNFLAKNIVDRQILSNWEFPVGWFQSVNPLAIILLAPIIAVIWSLLDKYRIEPSIPRKFSFGLMFNGFGFLILMYALSNLLNASNMIPFWSLIAVYVIQTVGELCLSPIGLSMVTKLAPVRLVGFAMGGWFLSTAIGNNLSGVFASFVSGEEGMTVSSALRGYTFGFWSLIGSGILLFLISPLINRLMHGVK”, for which the protein production entry is “failed”. On to “MSVFAGLVEQLADVLQPLFHASAAAAAIVLFTALVRLLVHPLSRASARGQRARARLQPQVAELRKKHGKNPEKLQKALLELHAEEKVSPLSGCLPGLFQLPAFFLLYHLFSNTTIGGEGNELLTHTLFTAPLGDRWADALGDGGPFGTQGLVYLGLFAIVAAVATFNYRRTKRTMAANPLPVGDGEQQVPGLGAINRFMPLMSFFTLFTVAFVPLAAALYVVTSTTWSAVERAALYPVPERSS”, for which the protein production entry is “failed”. With “MSVKGFFFILVFFLVAIMGFLIYISETVVVKYLYIAEALMLLLMLYLILFYRKIVKPMNTIGSGMELLREQDFSSRLSHVGQQEADRVVNVFNRMMEQLKNERLRLREQNHFLDLMINASPMGVIIMTLDEEVSQLNPMAMKMMGVRPEEAEGRKLSEIDSPLALELAAIPNGETSTVRLNDSSIYKCTHSSFVDRGFQHPFYLMEGLTDEVMKAEKKAYEKVIRMIAHEVNNTTAGITSTLDTVEQALSESEGMEDICDVMRVCTERCFSMSHFITRFADVVKIPEPRFTPTNLNDLAFTCKRFMEGMCNDRNIRLQLICDESLDDVKLDASLFEQVLVNIIKNAAESIGQDGQIIIRTSLPTAIEVVDNGPGISKETEAKLFSPFFSTKPNGQGIGLIFIREVLSRHGCTFSLRTYADGLTRFRILFP”, the protein production entry is given as “failed”. With “MSVKTWRKIAIDIIRDFDHNIMPLFGNPKASETISISPSGDETKVVDKVAENIIISKFKDLGVNVVSEEIGRIDQGSDYTVVVDPLDGSYNFINGIPFFAVSVAIFHEKDPIYAFIYEPIVERLYEGIPGKGSYLNGEKIKVRELAEKPSISFYTKGKGTKIIDKVKRTRTLGAIALELAYLARGALDAVVDIRNYLRPTDIAAGVVIAREAGAIVKDLDGKDVEITFSATEKVNIIAANNEELLETILRSIEK”, the protein production result is given as “not failed”.
